Source: the DeepSol protein solubility set

Assay: soluble on expression in E. coli; label from the status in PepcDB or PDB records

Soluble on expression in E. coli, not soluble:
MGSDKIHHHHHHMKLVEITREEIRGDLVGLVPVGSIEQHGPHLPMGTDGIISEYIASKAEEKLKDITLLFPTIYYGVSLEHKGFPFVSLSFQTAISFFTDLLESVFNDLGLRRIIIVNGHGGNSYFLPLVQREFNMKHSDAKVIVFNTFGEEEKILFNVNDLHAGTIETSKIWAIGKSLVRVNKIDEIKNYEVRDGVFIYYSSREANQFGVLNDGKPIRVNEEYGKKILRDLVDKLIWTILNFKV
PRERVSRVHASSGTTGKPTVVGYTARDLDNWANLVARSIRAAGGKPGDIVHVSYGYGLFTGGLGAHYGAERLGCTVVPMSGGQTEKQVQLINDFRPDIIMVTPSYYCNILEEQRRQGMDPRQSSLRIGIFGAEPWTGQMRADIEAEGGIDAVDIYGLSEVMGPGVASECVETKDGPVV
MGRGRAKAKQTKVARELKYSSPQTDFQRLQRELSGTGTDRLDGDGPSDDDSWNDEDDWRR
MSTAVIVSRPPSQTASFHGPQHPNRCSFSSSSSESIPPTTGRAKGSSDFEELEIRIDKALKERDAEWRKHEKSQIQFLQNETSNMLKSLHNEINRLGNELREEKRKTLHGDDDSADKIAELEKVITEKEAYTKNLEKKVSTTIQKLQEQITIQSDRIRQLNEELSDRNQTVTHLSQQLRAIKLREAMATSQHRRRASSQLSTTSSPPMTSPSSPHRIFPPVSSGLLSASVAVTYPGNSRISIQKRSTSAMRAPTMPN
MANVAFGFQEAVFTLESMVANIERQAQTIEKLINENKQLRQENQQLKARIAELEARTKKNSTNSHFPPSSDRFGAKSPSRPPSEKRPGGQPGHQGTTLRQSPNPDHRVLHRVTQCKGCGHSLEHIDPLQVDIRQVFDLPVVRMEVTQHEREIKRCPECRLVQQAEFPFYVTNHVQYGPAVTSLILYWNHAQLIPCERVTEMVKALTGHSMSAGTVVNMTRRWQPVAEAAIEEIEAALLTSSTLHVDETSLRVKGTKQWVHVASTSKETRYGIHRSRGKQATDDIGILPRYKGTMVHDAYAVYPMYTQASHALCHAHHLRELREYTELYHHSWSNKMAEALLEMKQAVEKAGGALPEEKVRYWEAVYDELLSNGRQELDERCRQGNYLGVRKAEHFIRRLEKRKQEALLFLRKKEVPFDNNQAERDLRMVKVKQKISGTFRQEDDAEAFCVIRSVVSTLQKHGKPVWESLQRLLSGESLQTILQSS
MNESRITRNNEAVYKPEELDILRLGLDTDLYPNVDWMDMLLKDGAWSNRINLNMSGGGTTARYFVSASYVKEDGMYNTDESLKDDYNTNAAYHRWNYRLNTDIDITKTTLLKVGVAGFLSKRNSPGLGDGDVWGELFGYNPIKTPVMYSNGYIPAIGSGNKTNPWVAATQTGFNENWTNNIETNISLEQNFDFITKGLKFVGRFGYDSNNQNTIRRLKWPEQWLAERARDPETGELRWKKISGSQNMKQESSSSGNRREFLDMMLNWDRSFGAHHPSATIKYTQDSYIQTQNLGEDLKTGINKRNQDLAGRVAYNWNYRYFIDFNFGYNGSENFAKGDRFGFFPAFSLAWNIAEEPFIKKHLKWMNMFKVRFSYGKVGNDNVGTRFPYLYTIADRYKNGDNEIIYGGYDWAQYPSSYSFGGLGFADVASNGITWEVAEKNDLGIDLALFNDKFTATIDYFDEKRTGIYMVRNYLPQIVGLNGHNPAANVGAVSSKGFDGHFSYKQRINDVNLTVRGNITYSKNEVLERDEENNVYAYQMQRGYRVDQCKGLIAEGLFKDYDDIRNSPTQSWGKVQPGDIKYRDVNGDGVINDGDQVAIGATSRPNLIYGLGASASWKGLDVNVHFQGAGKSTFFTYGKCVWAFTEGEWGNIFKGMLDNRWVDADTAETLGIPANENPNASYPRLSYQGDNASNNNYRNSTFWLKNGRYLRLKTIDVGYTLPKSIVNKMHFNNIRIFLVGTNLLTWSSFKTWDPEMGDPRGESYPLTKSITMGISVNL
MAVQRYFVSGQAQQGGIVAISGDDAHHIARVMRMKPGDGIICVFPDGRTAVCEIEQIANEHVQARIVQWKEERSELPVRIYIAQGLPKGEKWELVIQKGTELGAAGFLPFEAARSVVKWDAKKAEKKVERWKKIAKEAAEQAERTVVPDVRAPLSFVELLAFGQTVDVRLFAYEKEARNARHAALPALLSRLRPGGALLAVFGPEGGFSPEEAEQLRQHGFSPCSLGPRILRTETAPLYLLSAASYEWELRAGGEAARGR
GGVDSHSHIAGAKVNTGRTLRPEDSKKDLFSKEGLRQGSGFSIPSTFKTGYQYSGMGYTTVIEAAMPPLVARHTHEEFMDLPQIDKAAMPLFGNSWMVLEYLKNGDLSMCAAYVAWLLKVTKGYAIKIVNPGGTEAWGWGKNVHGLDDEVPYFGITPREIVTGLAKVNEMLGLPHSIHVHPNNLGHPGNWETTIDTMDCVKDIKAKPKFGDRDTVYYNTHLQFHSYGGTSWKDCVSKGVETADYVNKNKHVMIDVGQVTLDETTTMTADGPMEYDLHMTNGLKWANCDVELETGSGVVPFIYSPKGPVYSLQWAIGLDIFLYTQPEKLILTTDHPNAGPFVRYPRVIAWLLSKEYRNDWIQNRVHKWAAEKSHITETDREYSMYEIAQITRANSSKVLGLSGDRGHLGAGAKADISIYDIDPEEKSGKKIEKAFLEAAYVLKDGEIVVKNG
MGSDKIHHHHHHMIKCIAVDDEPLALEQLTGYIARVPFLQLIASCQDAFSAMQVLSEEEVDLMFVDIHMPDLNGLDLVRSLVVKPLIVFTTAYPEYAVEGFKVDAVDYLLKPFEFQDLLKAADKARRQFEYHLQDNGGGTETDLLEKDGSLFVKSEYKIIRINVADICYIEGMSEYVRIYTDTADKPVVTLLSMRKLEERLPQEMFMRVHRSYIVNLRKITEVSRLRIIFNKNIYIPVGDNYKERFTEYINKICVSS
AQAALKDGTYSVDYTVLQGDSDSVSMANDYFDKPATVTVNGGKSTVSLQVNHSKWITGLWVEGNAVSVTSKNTASDTRKVSFPVSTLSSPVNAKIKVDIDDDGLNYHHEYQIQLRFDEGAVKSSGAAV
MLRTICKQHTALPDKSIRKLEKIAEGLTVLSKLLKADIFIDCPTGINDAAIVVAEANPETGSSYTQSVVGQYAYRKNEPAVLRTLETGLPSRDYKALTQENTLVRQNVVPIKNEKEEVIGVLIVEEGSNDTGLNKELNFLHDATNELLRSSMEMTKEQKIIDYINDGIIIFNEKGILIYANSKAKNIYKKIGYKHNILGTKFSNIVLNNIAFKDVLDGIIPGSSDIHIAKMDLNIHYYLIKESKNVKNVVLFIKDLTEIKEKEKELILKSVAIKEIHHRVKNNLQTIASLLRIQARKTEDEAVRQAFNESINRILSIAVTHEILAQNGLDDLKIKEMFSKILKNSIRASIGENLDLKTSISGDDFKINSDKSTSIALIANELVQNSITHGFKGMTSGKIDITVKQGKIKSKVTIADNGVGFKSKDFKNESLGLQIVKSLVKEKLFGTIDIKSTKNGTIIVFDFEN
MTVNVVVTDMDGTFLDDAKQYDRVRFMAQYQELKKRNIEFVVASGNQYYQLISFFPELKDEISFVAENGALVYEHGKQLFHGELTRHESRIVIGELLKDKQLNFVACGLKSAYVSKNAPETFVALMAKHYHRLQPVNDYHDIDDILFKFSLNLPDEQIPLVIDKLHVSLDGIMKPVTSGFGFIDLIIPGLHKANGISRLLKRWNRSPQNVVAIGDSGNDAEMLKMAHYSFAMGNAADNIKALSRYHTDDNNHQGALNVIQAVLDGTDPF
LHAEGPPSVICIRLLVGLVFLSEGIQKFMYPDQLGPGRFERIGIPAATFFADLDGVVEIVCGTLVLLGLLTRVAAVPLLIDMVGAIVLTKLRALQPGGFLGVEGFWGMAHAARTDLSMLLGLIFLLWSGPGRWSLDRRLSKRATACGAR
AHHHHHHGSIRRVKREIRVIGFDDGTFPHKKRGEKVILVGIVMKGGSDVLGAVSRWITIDGLDVTEAIIDSILSSRFRGDLRVILLKGITYAGFNVVDVNRVFRETGLPLIVVVRKRPDFEAIENALRKHFEDWEKRMELIKAGGKIYELIPGKVYYQAIGIDAETAAKIIRATSRNSLIPEALRIAHIVASAVMRGESSKE

Soluble on expression in E. coli, soluble:
MALIVQKFGGTSVGTVERIQAVAQRIKRTVQGGNSLVVVVSAMGKSTDVLVDLAQQISPNPCRREMDMLLSTGEQVSIALLSLALQEIDQPAISLTGAQVGIVTEAEHSRARILEIRPDRLEHHLREGKVVVVAGFQGISSVEHLEITTLGRGGSDTSAVALAAALKADFCEIYTDVPGILTTDPRLVPEAQLMAEITCDEMLELASLGAKVLHPRAVEIARNYGIPLVVRSSWSDEPGTKVVAPPVQNRSLVGLEIAKAVDGVEYDADQAKVALLRVPDRPGVASKLFRDIAQQQVDIDLIIQSIHDGNSNDIAFTVVKDLLNTAEAVTSAIAPALRSYPEADQEAEIIVEKGIAKIAIAGAGMIGRPGIAAKMFKTLADVGVNIEMISTSEVKVSCVIDQRDADRAIAALSNAFGVTLSPPKNQTDTSHLPAVRGVALDQDQAQIAIRHVPDRPGMAAQLFTALAEANISVDMIIQSQRCRINQGTPCRDIAFMVAEGDSSQAEAILQPLIKDWLDAAIVVNKAIAKVSIVGSGMIGHPGVAAHFFAALAQENINIEMIATSEIKISCVVPQDRGVDALKAAHSAFNLAGTKTVTVPA
HGPAPLDLDKYVEIARLCKYLPENDLKRLCDYVCDLLLEESNVQPVSTPVTVCGDIHGQFYDLCELFRTGGQVPDTNYIFMGDFVDRGYYSLETFTYLLALKAKWPDRITLLRGNHESRQITQVYGFYDECQTKYGNANAWRYCTKVFDMLTVAALIDEQILCVHGGLSPDIKTLDQIRTIERNQEIPHKGAFCDLVWSDPEDVDTWAISPRGAGWLFGAKVTNEFVHINNLKLICRAHQLVHEGYKFMFDEKLVTVWSAPNYCYRCGNIASIMVFKDVNTREPKLFRAVPDSVRASSPSPL
GPGSMEDYKAKGNDAFKAKRYQEAIDWYTKAIELDPNGEASGALYSNRAGSWQNLNNFEKAAADSEQCIRLRPDWLKGYFRLGVAMESMVKYDEAQKAFQKALQLSPGNEEGWTSCTPLILKFASAYEKTKSRSARPLKKPSNLATPS
MKGDHYSPNWPQLALSKKQSVNWVCERCGVQCLKPGEGKGLLKEERYRFRMAVHHCDYDPSNNSPSNLMALCSLCHLYYHRRQQGNISLGQLSLEFYLEHHHHHH
MPFGLKSSQSIDDKFMSITQMKNLIHYVKKNDALSHLCIYILIITGSRFKPVQHLRYEDLNFKKSCIHLNDTKNKYSKRNVKVRIKDLEYIQSVINKHPINQNGYIFHNFINFISYSAINDVLVRFCLKYKYDKYTLKSLRHTHCSYLLAKGISIQYISKRLGHADIHTTLKIYSHLIKEFEDSENSLIEKNLNDLFSDLEHHHHHH
GARIKTLSVSRPIIYGNTAKKMGSVKPPNAPAEHTHLWTIFVRGPQNEDISYFIKKVVFKLHDTYPNPVRSIEAPPFELTETGWGEFDINIKVYFVEEANEKVLNFYHRLRLHPYANPVPNSDNGNEQNTTDHNSKDAEVSSVYFDEIVFNEPNEEFFKILMSR
MSKFNLGIAKAGKTVNNEGAIAYSMSDKEKLVTQVLTSFFNENKFYGDNSQDILNTVRNVIKNEAAFVANLCIFARKEMHLRTISHVLVSELAKSTEGKEYVRRTLNEIIERPDDMTEVLAYYINTYGKPIPNSIKKGLADSFGKFDEYQLAKYNRKNAVKLKDILCLVHPKAKDEIQNDLWKRLLEDRLETPVTWETELSLKGNTKEVWERLIDENRLGYMAMMRNLRNIIKSGASNMDKVYEYLTDEERVLKNKQLPFRYYSAYKVLRNEGIGTSKIYDALEIAIKISTKNIDRLPGKTLIAADVSGSMNFPVSAKSDLTCAEVAVLMLSIANYICEESITMTFDDNLYACNLSTQNGIIANANSIKVNGGGTDITLPLRYLLDKRIFVDRIILLSDNEINAVYTYDTGRDKPKTCQALVERYKKWINPNVWVHAIDMQGYGTQQFKGQNVNIIAGWSERVFDFISSVEQGIDTLIGKISGYYFK
